Measurements as given in the nanobody polyreactivity screen of Harvey et al. (2022).

Assay: yeast display, Sf9 membrane polyspecificity reagent, FACS + sequencing; frameworks hold sequencing errors
In short: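 Nanobodies from a synthetic yeast display library (Saccharomyces cerevisiae BJ5465), induced 36–48 hours with galactose, were stained 1 hour at 4 °C with 10% biotinylated, detergent-solubilized Sf9 membrane reagent, enriched on streptavidin microbeads, then FACS-sorted. Anti-HA (expression) and streptavidin (reagent binding) fluorescence set low and high (top ~1%) gates. Polyreactivity labels come from the gate of origin. Genes were colony-PCR amplified, MiSeq 2 × 250 sequenced and filtered by CDR length.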

| Sequence | polyreactivity (PSR sort gate) |
| --- | --- |
| QVQLVDSGGGLVQAGGSLRLSCAASGSIFWIYSMGWYRQAPGKERELVATISRGGSTYADSVKGRFTISRDNAKNTVYLQMNSLKPEDTPVYYCAARAFAGNQQAYYYWGQGTQVTVSS | high polyreactivity |
| QVQLVDSGGGLVQAGGSLRLSCAASGSIILVNAMGWYRQAPGKEREFVAAISTSSGSTYYADSVKGRFTISRDNAKNTVYLQMNSLKPEDTAVYYCAADEVYSRGIWPVEDDYWGQGSQVTVSS | low polyreactivity |
| QVQLVDSGGGLVQAGGSLRLSCAASGSILGGNAMGWYRQAPGKERELVAAITFSGGGTYYADSVKGRFTISRDHAKNTVYLQMNSLKPEDTAVYYCAADKDGYTYEFDYWGQGTQVTVSS | low polyreactivity |
| QVQLVDSGGGLVQAGGSLRLSCAASGSILNNYAMGWYRQARGKERELVAAISSSGGTNYADSVKGRFTISRDNAKNTVYLQMNSLKPEDTAVYYCYADVLDGGYDYWGQGTQVTESS | low polyreactivity |
| QVQLVDSGGGLVQAGGSLRLSCAASGSIYSSYAMGWYRQAPGKERELVASISSGGSKNYADSVKGRFTISRVNAKNTVYLQMNSLKPEDTAFYYCNVDLYNWRGDYTGYDYWGQGTQVTVSS | low polyreactivity |
| QVQLVDSGGGLVQAGGSLRLSCAASGSPFTTYAMGWYRQAPGTERELVAAISTNGGRTFYSDSVKGRFTISRDNAKNSVYLQMNSLKPEDTALYYCAAEYDLYAPGYYYWGEGTQVTVSS | low polyreactivity |
| QVQLVDSGGGLVQAGGSLRLSCAASGSTCYYYNMGWYRQSPWKERELVAAISFIGGSTYYADSVKGRFTISRDNAKYTVYLQMNSLTPEDTAVFYCAAEFYRWGSLSFSNDYWGQGTQVTVSS | low polyreactivity |
| QVQLVDSGGGLVQAGGSLRLSCAASGSTFLYHAMGWYRQAPGKERELLAAINSGTSTTYADSVKGRFTISRDNAKNRVYLQMNSLNPEDTAVYYCAADYYYVNYYGYYTLFDFDYWGQGTQVTVSS | low polyreactivity |
| QVQLVDSGGGLVQAGGSLRLSCAASGSTFLYYSMGWYTQAPGKERELVAVISWSGVSTYYADSVKGRFTISRDNAKNSVYLQMNSLKPEDTAVYYCNTGNHYIRTYGYWGQGTQVTVSW | low polyreactivity |
| QVQLVDSGGGLVQAGGSLRLSCAASGSTFQPYAMGWYRQAPGKERELVAAIRYSGGITYYADSVKGRFTISRDNAKNTVYLQMNSLKPEDTAVYYCAAYGFYGGDYWGQGTQVTVSS | high polyreactivity |
| QVQLVDSGGGLVQAGGSLRLSCAASGSTFRGYDMGWYRQAPGKESELVAAITGSGTSTYYADSVKVRFTISRDNAKNTVYLQMNSLKPEDTAVYYCAARSRRPAERMYYWGQGTQVTVSS | high polyreactivity |
| QVQLVDSGGGLVQAGGSLRLSCAASGSTFSDSPMGGYRQAPGKERELVAGITGGGGTYYADSVKGRFTISRDNAKNTVYLQMNSLKPEDTAVYYCAAGYGRRIRYGSEYDYWGQGTQVTVSS | low polyreactivity |
| QVQLVDSGGGLVQAGGSLRLSCAASGSTFSLYAMGWYRQAPGKEREMVASITWGGGSTYADSVKGRFTISRDNAKNTVYLQMNSLKPEDTAVYYCARKFRYRVLYDFAYDHWGLGTQVTVSS | low polyreactivity |
| QVQLVDSGGGLVQAGGSLRLSCAASGSTFSYYAMGWYRQAPGKERELVAAISYSGDSTYYADTVKGRFTISRDNAKNTVYLQMNSLKPEDSAVYYCNADSPFNGNLDRYFATLDDYWGQGTQVTVSS | low polyreactivity |
| QVQLVDSGGGLVQAGGSLRLSCAASGSTFVTYAMRWYRQAPVKERELVAAITEDGASTYYADSVKGRFTISRDNAKNTVYFQLNSLYPEDTAVYYCAADPTYWPVWYVLYDYWGQGTQVTVSS | low polyreactivity |
| QVQLVDSGGGLVQAGGSLRLSCAASGSTFYYYAMGWYRQAPGKERELVAAITYSGGSTTYADSVKGRFTFSRDNAKNTVYLQMNSLKPEDTAVYYCAAYVYRYHRVAYEYWGQGTQVTVSS | high polyreactivity |

| Sequence | polyreactivity (PSR sort gate) |
| --- | --- |
| QVQLVDSGGGLVQAGGSLRLSCAASGSTLNVYAMGWSRQAPGKERELVATIRRRGTSTYYADSVKGRFTISRDNAKNTVYLQMNSLKPEDTAVYYCAADTRTYRLSSGSGHWEYDYWGQGTQVTVSS | high polyreactivity |
| QVQLVDSGGGLVQAGGSLRLSCAASGSTVKYAMGWYRQAPGKERELVASIRRSGGSTYYADSVKGRFTISRDNAKITVYLKMNSLNPEDTAVYYCAAPLFRWMDYWGQGTQVTVSS | high polyreactivity |
| QVQLVDSGGGLVQAGGSLRLSCAASGYIFSANAMGWYRQAPGKERELVAVISWNGDGTYYADSVKGRFTISRDNAKNTVYLQMNSLKAEDTAVYYCAALSYAYRSQSRRYGYRFDYWGQGTQVTVSS | high polyreactivity |
| QVQLVDSGGGLVQAGGSLRLSCAATGRIFAGYAMGGYRQAPGKERELVAAISDGGTTNYADSVKGRFTISRDNAKNTVYLQMNILKPEDTAVYYCAKDAAESYRYGYWGQGTQVTVSS | low polyreactivity |
| QVQLVDSGGGLVQAGGSLRLSCAATGTIFAAYVMGWYRQAPGKERELVAAISYSGGGTYYADSVNGRFTISRDNAKNTVYIQMNSLKPEDTAVYYCAADFGVFKSARYYYWGQGTQVTVSS | low polyreactivity |
| QVQLVDSGGGLVQAGGSLRLSCAAYGSTFRGYAMGWYRPAPGKERELVAAISWSGGITYYADSVKGRFTISRDNAKNTVYLQMNRLKPEDTAVYYCAAVWDQVSDRYMLEYCGQGTQVTVSS | high polyreactivity |
| QVQLVDSGGGLVQAGGSLRLSCAPSGTTYPGYAMGWYRQAPGKERELFAAIDRGGSTSYADSVKGRFTISRDNAKITVYLQMNSLKPEDTAFYYCAAEASVVHKSSDYDSWGQCTQVTVSS | low polyreactivity |
| QVQLVDSGGGLVQAGGSLRLSCASSGFIFQYNTMGWSRQAPGKERELVAVITRTGSTNYADSVKGRFTISRDNANNTVYLQMNSLKPEDTAVYYCATSVYSRPRKPRYYYWGQGTQLTVSS | high polyreactivity |
| QVQLVDSGGGLVQAGGSLRLSCSASGFTFAWYAMGWYRQAPGKERELVAAISGSGGRTYYADSVMGRFTISRDNAKNTVYLQMNSLIPEDTAVYYCATRRRYEYYWGQGTQVTVSS | high polyreactivity |
| QVQLVDSGGGLVQAGGSLRLSSAASGFTFVAYAMGGYRQAPGKERELVATITKGGGGTYYADSVKGRFTISRDNAKNTVYLQMNSLKPEDTAVYYCAADRQYRGRTRYVYAPLYYWGHGTQVTVSS | high polyreactivity |
| QVQLVDSGGGLVQAGGSLRLSSAASGYIFVVNAMGWYRPAPGKERELVAAIDWGGGSTYADSVKGRFTISRDNAKNTVYLQMNSLKPEDTAVYYCAADLWPYPTDYWGQGTQVTVSS | low polyreactivity |
| QVQLVDSGGGLVQAGGSLRLSWAASGSTFVYNAMGWYRQAPGKEREFVAGISRSGGSTYYADSVKGRFTISRDNAKNTVYFQMNSLKPEDTAVYYCNARGGLPKYGYWGQGTQVTVSS | high polyreactivity |
| QVQLVDSGGGLVQAGGSLRLTCAASGIIFYYYAMGWYRQAPGKERELVAAITGTGSRTYYADSVKGRFTISRDNAKNTVYLQMNSLKPEDTAVYYCNARSFATGSKVPARGYWGQGTQVTVSS | high polyreactivity |
| QVQLVDSGGGLVQAGGSLRLTCAASGKIFVPNAMGWNRQAPGKERELVAAIRRGGSTNYADSVKGRFTISRDNAKNSVYLQMNSLKPEDTAVYYCAKSRVSFTDLVGYYWGQGTQVTVSS | low polyreactivity |
| QVQLVDSGGGLVQAGGSLRLTCAASGSTIYKNTMGWDRQGPGKERELVAAITRGGSTYYADSVKGRVTISRDNAKNTVYLQMNSLKPEDTAVYYCNTLTRHRYGYDYWGQGTQVTVSS | high polyreactivity |
